Measured values reported in publication doi:10.1101/854133.
pKd: −log10 of the molar value.

Biological target: FANCI-Ub (mono-ubiquitinated at K523);FANCD2-Ub (mono-ubiquitinated at K561) (human;human) (UniProt Q9NVI1+Q9BXW9)
Assay: EMSA
Settings: nick

FANCI-Ub (mono-ubiquitinated at K523);FANCD2-Ub (mono-ubiquitinated at K561) (human;human), sequence (Q9NVI1 whole entry, chain 1 of 2): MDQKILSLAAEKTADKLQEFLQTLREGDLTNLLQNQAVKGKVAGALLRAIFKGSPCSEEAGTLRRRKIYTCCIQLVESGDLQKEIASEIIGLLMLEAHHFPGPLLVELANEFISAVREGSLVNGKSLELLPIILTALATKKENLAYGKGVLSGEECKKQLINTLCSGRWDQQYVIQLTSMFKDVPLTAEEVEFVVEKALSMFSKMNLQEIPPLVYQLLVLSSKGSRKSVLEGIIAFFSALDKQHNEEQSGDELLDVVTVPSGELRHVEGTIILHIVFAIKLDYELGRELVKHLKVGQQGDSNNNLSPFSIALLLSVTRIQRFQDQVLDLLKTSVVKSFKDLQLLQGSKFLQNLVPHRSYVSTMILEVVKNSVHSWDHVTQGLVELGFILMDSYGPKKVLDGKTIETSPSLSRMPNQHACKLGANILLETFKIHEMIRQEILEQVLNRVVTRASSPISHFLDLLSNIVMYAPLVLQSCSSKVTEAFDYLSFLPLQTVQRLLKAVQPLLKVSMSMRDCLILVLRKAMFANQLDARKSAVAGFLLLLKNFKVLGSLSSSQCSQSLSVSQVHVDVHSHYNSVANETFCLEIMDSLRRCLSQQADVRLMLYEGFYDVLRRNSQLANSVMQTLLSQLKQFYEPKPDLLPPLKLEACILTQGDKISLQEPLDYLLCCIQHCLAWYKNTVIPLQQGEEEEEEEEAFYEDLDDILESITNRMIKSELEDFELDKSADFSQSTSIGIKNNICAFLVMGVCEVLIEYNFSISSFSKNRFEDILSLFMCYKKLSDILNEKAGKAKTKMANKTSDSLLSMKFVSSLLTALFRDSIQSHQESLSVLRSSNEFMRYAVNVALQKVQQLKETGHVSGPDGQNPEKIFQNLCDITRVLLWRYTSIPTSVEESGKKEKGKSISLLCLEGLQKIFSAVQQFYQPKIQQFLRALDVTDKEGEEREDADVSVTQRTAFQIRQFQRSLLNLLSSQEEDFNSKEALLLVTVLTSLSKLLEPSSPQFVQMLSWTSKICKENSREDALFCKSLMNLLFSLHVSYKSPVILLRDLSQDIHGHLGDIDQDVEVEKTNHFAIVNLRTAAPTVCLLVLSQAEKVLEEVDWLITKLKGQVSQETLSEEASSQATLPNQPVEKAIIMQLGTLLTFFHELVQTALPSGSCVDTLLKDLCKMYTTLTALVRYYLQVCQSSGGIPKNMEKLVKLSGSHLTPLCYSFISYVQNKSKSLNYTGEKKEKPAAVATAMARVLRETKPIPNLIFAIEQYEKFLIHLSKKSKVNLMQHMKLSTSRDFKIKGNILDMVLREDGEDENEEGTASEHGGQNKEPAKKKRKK
FANCI-Ub (mono-ubiquitinated at K523);FANCD2-Ub (mono-ubiquitinated at K561) (human;human), sequence (Q9BXW9 whole entry, chain 2 of 2): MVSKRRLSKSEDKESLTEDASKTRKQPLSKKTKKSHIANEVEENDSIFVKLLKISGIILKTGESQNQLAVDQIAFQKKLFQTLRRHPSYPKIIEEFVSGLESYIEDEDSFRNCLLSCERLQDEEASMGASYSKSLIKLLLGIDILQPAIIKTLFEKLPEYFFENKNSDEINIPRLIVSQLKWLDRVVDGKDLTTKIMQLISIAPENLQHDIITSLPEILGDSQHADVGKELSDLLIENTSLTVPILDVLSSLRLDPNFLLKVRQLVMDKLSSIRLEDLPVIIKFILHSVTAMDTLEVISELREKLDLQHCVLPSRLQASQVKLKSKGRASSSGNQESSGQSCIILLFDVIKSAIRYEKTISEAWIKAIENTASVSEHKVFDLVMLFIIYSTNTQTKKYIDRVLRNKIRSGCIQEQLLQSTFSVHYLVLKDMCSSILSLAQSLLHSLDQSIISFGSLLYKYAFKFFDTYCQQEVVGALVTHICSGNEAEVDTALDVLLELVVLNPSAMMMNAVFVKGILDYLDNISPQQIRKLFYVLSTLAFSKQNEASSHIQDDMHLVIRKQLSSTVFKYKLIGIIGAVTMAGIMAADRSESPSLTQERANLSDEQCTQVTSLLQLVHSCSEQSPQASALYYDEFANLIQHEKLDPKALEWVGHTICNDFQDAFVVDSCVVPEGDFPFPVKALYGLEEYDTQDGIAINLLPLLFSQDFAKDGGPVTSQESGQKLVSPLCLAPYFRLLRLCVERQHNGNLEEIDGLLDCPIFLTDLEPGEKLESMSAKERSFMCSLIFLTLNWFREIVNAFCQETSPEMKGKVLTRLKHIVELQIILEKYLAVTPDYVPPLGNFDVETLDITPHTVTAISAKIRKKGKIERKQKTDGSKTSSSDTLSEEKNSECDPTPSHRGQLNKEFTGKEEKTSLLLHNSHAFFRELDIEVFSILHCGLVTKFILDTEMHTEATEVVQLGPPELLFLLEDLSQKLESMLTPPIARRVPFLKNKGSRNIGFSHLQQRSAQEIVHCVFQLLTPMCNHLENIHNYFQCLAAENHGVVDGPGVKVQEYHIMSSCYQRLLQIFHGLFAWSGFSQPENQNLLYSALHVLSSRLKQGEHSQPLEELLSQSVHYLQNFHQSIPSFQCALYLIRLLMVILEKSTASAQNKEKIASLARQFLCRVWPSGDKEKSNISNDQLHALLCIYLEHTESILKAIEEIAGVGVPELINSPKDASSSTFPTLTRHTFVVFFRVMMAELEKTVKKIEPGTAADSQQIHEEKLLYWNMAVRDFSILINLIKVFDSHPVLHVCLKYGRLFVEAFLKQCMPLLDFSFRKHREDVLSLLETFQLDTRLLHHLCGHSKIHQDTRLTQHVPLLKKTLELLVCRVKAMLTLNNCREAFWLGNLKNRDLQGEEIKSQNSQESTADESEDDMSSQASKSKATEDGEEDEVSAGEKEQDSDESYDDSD

In the case of nicked DNA, EMSA, the pKd was 7.70.
